# Positions count from the first letter of the chain named. Numbers in names are those of the source.
# T1: CD96 (UniProt P40200 22-585, limits assumed)
# T1 construct: whole, on cells
# T1 sequence (looked up): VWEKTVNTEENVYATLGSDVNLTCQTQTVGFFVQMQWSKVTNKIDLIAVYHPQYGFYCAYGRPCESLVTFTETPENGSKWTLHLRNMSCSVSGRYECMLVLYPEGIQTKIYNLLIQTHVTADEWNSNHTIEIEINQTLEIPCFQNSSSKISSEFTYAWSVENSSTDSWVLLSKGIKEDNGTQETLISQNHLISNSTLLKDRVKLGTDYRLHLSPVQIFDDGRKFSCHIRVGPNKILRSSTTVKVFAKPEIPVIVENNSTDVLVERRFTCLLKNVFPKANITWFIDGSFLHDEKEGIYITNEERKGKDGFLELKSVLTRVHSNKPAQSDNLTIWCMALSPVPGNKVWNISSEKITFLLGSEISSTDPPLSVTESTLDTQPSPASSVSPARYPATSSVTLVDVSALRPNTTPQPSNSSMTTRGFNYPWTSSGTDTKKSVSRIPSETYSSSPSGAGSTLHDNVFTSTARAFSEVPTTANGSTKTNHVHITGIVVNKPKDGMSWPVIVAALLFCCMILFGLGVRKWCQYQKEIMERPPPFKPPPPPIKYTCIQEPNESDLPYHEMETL
# T2: CD226 (UniProt Q15762 19-336)
# T2 construct: whole, on cells
# T2 sequence (looked up): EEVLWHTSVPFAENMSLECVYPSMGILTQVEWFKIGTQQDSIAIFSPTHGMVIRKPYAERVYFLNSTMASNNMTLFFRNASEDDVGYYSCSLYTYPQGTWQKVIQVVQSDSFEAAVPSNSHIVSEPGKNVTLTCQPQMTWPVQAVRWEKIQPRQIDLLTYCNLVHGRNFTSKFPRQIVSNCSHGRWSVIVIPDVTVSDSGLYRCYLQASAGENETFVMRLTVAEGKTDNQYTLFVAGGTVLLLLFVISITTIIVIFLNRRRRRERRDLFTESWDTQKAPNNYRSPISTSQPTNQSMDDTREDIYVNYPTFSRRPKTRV
# B1: CD80 ECD-Fc (inert) with GSG4S linker, Example 16 (Fc fusion)
# chain: VIHVTKEVKEVATLSCGHNVSVEELAQTRIYWQKEKKMVLTMMSGDMNIWPEYKNRTIFDITNNLSIVILALRPSDEGTYECVVLKYEKDAFKREHLAEVTLSVKADFPTPSISDFEIPTSNIRRIICSTSGGFPEPHLSWLENGEELNAINTTVSQDPETELYAVSSKLDFNMTTNHSFMCLIKYGHLRVNQTFNWNTTKQEHFPDNGSGGGGSEPKSSDKTHTCPPCPAPEAEGAPSVFLFPPKPKDTLMISRTPEVTCVVVDVSHEDPEVKFNWYVDGVEVHNAKTKPREEQYNSTYRVVSVLTVLHQDWLNGKEYKCKVSNKALPAPIEKTISKAKGQPREPQVYTLPPSREEMTKNQVSLTCLVKGFYPSDIAVEWESNGQPENNYKTTPPVLDSDGSFFLYSKLTVDKSRWQQGNVFSCSVMHEALHNHYTQKSLSLSPG
# B2: CD80 E35D/M47V/N48K/V68M/K89N IgV-Fc, GS(G4S)3 linker (Fc fusion, not shown: a dimerising Fc or GST)
# chain: VIHVTKEVKEVATLSCGHNVSVEELAQTRIYWQKDKKMVLTMMSGDVKIWPEYKNRTIFDITNNLSIMILALRPSDEGTYECVVLKYENDAFKREHLAEVTLSVKADGSGGGGSGGGGSGGGGS
# B3: CD80 E35D/D46V/M47L/V68M/L85Q/E88D IgV-Fc, GS(G4S)3 linker (Fc fusion, not shown: a dimerising Fc or GST)
# chain: B2 chain with D46V, V47L, K48N, L85Q, E88D, N89K
# B4: CD80 E35D/M47V/N48K/V68M/K89N IgV-Fc, GS(G4S)5 linker (Fc fusion, not shown: a dimerising Fc or GST)
# chain: VIHVTKEVKEVATLSCGHNVSVEELAQTRIYWQKDKKMVLTMMSGDVKIWPEYKNRTIFDITNNLSIMILALRPSDEGTYECVVLKYENDAFKREHLAEVTLSVKADGSGGGGSGGGGSGGGGSGGGGSGGGGS
# B5: CD155 S52L/L104E variant IgV-Fc fusion (Fc fusion, not shown: a dimerising Fc or GST)
# chain: WPPPGTGDVVVQAPTQVPGFLGDSVTLPCYLQVPNMEVTHVSQLTWARHGELGSMAVFHQTQGPSYSESKRLEFVAARLGAELRNASLRMFGLRVEDEGNYTCEFVTFPQGSRSVDIWLRVL
# B6: CD155 T45Q/S52Q variant IgV-Fc fusion (Fc fusion, not shown: a dimerising Fc or GST)
# chain: B5 chain with T45Q, L52Q, E104L
# B7: CD155 T45Q/S52R/G111R variant IgV-Fc fusion (Fc fusion, not shown: a dimerising Fc or GST)
# chain: B5 chain with T45Q, L52R, E104L, G111R
# B8: variant CD80 IgV-Fc Q33L/E35D/M47L/A71G/F92S (Fc fusion, not shown: a dimerising Fc or GST)
# chain: VIHVTKEVKEVATLSCGHNVSVEELAQTRIYWLKDKKMVLTMMSGDLNIWPEYKNRTIFDITNNLSIVILGLRPSDEGTYECVVLKYEKDASKREHLAEVTLSVKAD
# B9: variant CD80 IgV-Fc E35D/M47V/A71G/L85M/L97Q (Fc fusion, not shown: a dimerising Fc or GST)
# chain: B8 chain with L33Q, L47V, L85M, S92F, L97Q
# B10: variant CD80 IgV-Fc V22A/E35D/V68E/A71D (Fc fusion, not shown: a dimerising Fc or GST)
# chain: B8 chain with V22A, L33Q, L47M, V68E, G71D, S92F
# notes: The molecule is an Fc fusion, which the general text describes as a dimer
# B11: variant CD80 IgV-Fc Q33L/E35D/M43I/L85Q/R94W (Fc fusion, not shown: a dimerising Fc or GST)
# chain: B8 chain with M43I, L47M, G71A, L85Q, S92F, R94W
# B12: variant CD80 IgV-Fc E35D/M47V/T62A/A71G/V83A/Y87H/L97M (Fc fusion, not shown: a dimerising Fc or GST)
# chain: B8 chain with L33Q, L47V, T62A, V83A, Y87H, S92F, L97M
# B13: variant CD80 IgV-Fc Q33L/E35D/M43V/M47I/A71G (Fc fusion, not shown: a dimerising Fc or GST)
# chain: B8 chain with M43V, L47I, S92F
# B14: variant CD80 IgV-Fc H18Y/Y31H/E35D/M47V/A71G/L85Q (Fc fusion, not shown: a dimerising Fc or GST)
# chain: B8 chain with H18Y, Y31H, L33Q, L47V, L85Q, S92F
# B15: variant CD80 IgV-Fc V22A/R29H/E35D/D46E/M47I (Fc fusion, not shown: a dimerising Fc or GST)
# chain: B8 chain with V22A, R29H, L33Q, D46E, L47I, G71A, S92F
# B16: variant CD80 IgV-Fc H18Y/E35D/V68M/L97Q (Fc fusion, not shown: a dimerising Fc or GST)
# chain: B8 chain with H18Y, L33Q, L47M, V68M, G71A, S92F, L97Q
# B17: variant CD80 IgV-Fc Q33L/E35D/M47L/V68M/L85Q/E88D (Fc fusion, not shown: a dimerising Fc or GST)
# chain: B8 chain with V68M, G71A, L85Q, E88D, S92F
# B18: variant CD80 IgV-Fc Q33L/E35D/N48K/L85Q/L97Q (Fc fusion, not shown: a dimerising Fc or GST)
# chain: B8 chain with L47M, N48K, G71A, L85Q, S92F, L97Q
# B19: variant CD80 IgV-Fc E35D/D46E/M47V/L97Q (Fc fusion, not shown: a dimerising Fc or GST)
# chain: B8 chain with L33Q, D46E, L47V, G71A, S92F, L97Q
# B20: variant CD80 IgV-Fc E35D/M38T/D46E/M47V/N48S (Fc fusion, not shown: small tags and cut ends; a dimerising Fc or GST)
# chain: B8 chain with L33Q, M38T, D46E, L47V, N48S, G71A, S92F
# notes: Fc fusion of the variant IgV
# Biological target: T3, human CD28 (human, UniProt P10747 19-220)
# T3 construct: Endogenous CD28 on Jurkat/IL2 reporter cells
# Assay: flow cytometry on Jurkat cells (CD28)
row,MFI at 33.3 nM [MFI],Binder
1,37,B1
2,2110,B2
3,267,B3

# Biological target: T4, human PD-L1 (human, UniProt Q9NZQ7 19-290)
# T4 construct: also called huPD-L1; CD274
# T4 sequence (Q9NZQ7 19-290): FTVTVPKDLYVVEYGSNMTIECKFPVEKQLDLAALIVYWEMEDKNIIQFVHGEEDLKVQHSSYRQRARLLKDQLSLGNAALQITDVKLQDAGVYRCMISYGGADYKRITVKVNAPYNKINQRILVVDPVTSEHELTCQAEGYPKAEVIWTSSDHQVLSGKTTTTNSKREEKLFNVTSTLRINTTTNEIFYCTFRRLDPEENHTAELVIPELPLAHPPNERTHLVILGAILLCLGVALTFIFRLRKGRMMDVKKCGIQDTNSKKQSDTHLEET
# Assay: flow cytometry on CHO cells stably expressing PD-L1
row,MFI at 33.3 nM [MFI],Binder
1,22700,B4
2,35,B1
3,24200,B2
4,22600,B3

# Biological target: T1, CD96
# Assay: flow cytometry on cells expressing CD96, Fc fusion at 100 nM
row,MFI at 100 nM [MFI],Binder
1,1830,B5
2,2450,B6
3,2340,B7

# Biological target: T2, CD226
# Assay: flow cytometry on cells expressing CD226, Fc fusion at 100 nM
row,MFI at 100 nM [MFI],Binder
1,2210,B5
2,5790,B6
3,2080,B7

# Biological target: T5, human PD-L1 (CD274), full-length, expressed on the surface of CHO cells (human, UniProt Q9NZQ7 19-290)
# T5 construct: also called huPD-L1; B7-H1
# T5 sequence (Q9NZQ7 19-290): as above
# Assay: flow cytometry on PD-L1 CHO cells; MFI against WT CD80 ECD-Fc (R&D)
row,Fold change to WT [fold],Binder
1,3.53,B8
2,7.77,B9
3,0.17,B10
4,3.65,B11
5,9.76,B12
6,9.82,B13
7,9.61,B14
8,3.2,B15
9,15.3,B16
10,15.8,B17
11,5.69,B18
12,2.45,B19

# Biological target: T6, human CTLA-4 (CTLA4), full-length, expressed on the surface of CHO cells (human, UniProt P16410 36-223)
# T6 construct: also called huCTLA4
# T6 sequence (P16410 36-223): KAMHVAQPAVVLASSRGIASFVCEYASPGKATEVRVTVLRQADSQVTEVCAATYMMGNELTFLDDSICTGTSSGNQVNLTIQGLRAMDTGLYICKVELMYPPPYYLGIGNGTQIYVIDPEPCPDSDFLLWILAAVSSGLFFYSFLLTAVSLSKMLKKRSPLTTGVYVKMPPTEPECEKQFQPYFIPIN
# Assay: flow cytometry on CTLA-4 CHO cells; MFI against WT CD80 ECD-Fc (R&D)
row,Fold change to WT CD80 [fold],Binder
1,0.01,B8
2,1.34,B9
3,2.45,B10
4,0.01,B11
5,0.1,B12
6,0.08,B13
7,0.02,B14
8,0.43,B15
9,0.97,B16
10,0.02,B17
11,0.01,B18
12,1.71,B19

# Biological target: T5, human PD-L1 (CD274), full-length, …
# Assay: flow cytometry; MFI on PD-L1 CHO cells over MFI on Jurkat cells (CD28)
row,Ratio of PDL1:CD28 [ratio],Binder
1,77,B8
2,182,B9
3,0,B10
4,107,B11
5,255,B12
6,275,B13
7,285,B14
8,79,B15
9,407,B16
10,476,B17
11,162,B18
12,52,B19

# Biological target: T7, human CD28, endogenously expressed on Jurkat/IL2 reporter cells (human, UniProt P10747 19-220)
# T7 construct: This is the endogenous CD28 of Jurkat cells
# Assay: flow cytometry on Jurkat cells (CD28); MFI against WT CD80 ECD-Fc (R&D)
row,Fold change to WT [fold],Binder
1,0.05,B8
2,0.04,B9
3,1.83,B10
4,0.04,B11
5,0.04,B12
6,0.04,B13
7,0.04,B14
8,0.04,B15
9,0.04,B16
10,0.03,B17
11,0.04,B18
12,0.05,B19

# Biological target: T8, human PD-L1, expressed on CHO cells (human, UniProt Q9NZQ7 19-290)
# T8 construct: Full-length surface expression construct transduced by lentivirus into CHO cells; also called huPD-L1; CD274
# T8 sequence (Q9NZQ7 19-290): as the sequence (Q9NZQ7 19-290) above
# Assay: flow cytometry on CHO cells stably expressing human PD-L1; PE anti-human Fc
row,MFI at 33.3 nM [MFI],Binder
1,19400,B20

# Biological target: T5, human PD-L1 (CD274), full-length, …
# Assay: flow cytometry, CHO cells stably expressing human PD-L1, 33.3 nM Fc fusion, PE anti-human Fc
row,MFI at 33.3 nM [MFI],Binder
1,28000,B8
2,61700,B9
3,1350,B10
4,29000,B11
5,77500,B12
6,78000,B13
7,76400,B14
8,25400,B15
9,122000,B16
10,126000,B17
11,45200,B18
12,19500,B19

# Biological target: T6, human CTLA-4 (CTLA4), full-length, …
# Assay: flow cytometry, CHO cells stably expressing human CTLA-4, 33.3 nM Fc fusion, PE anti-human Fc
row,MFI at 33.3 nM [MFI],Binder
1,2110,B8
2,239000,B9
3,437000,B10
4,1080,B11
5,18100,B12
6,14000,B13
7,3840,B14
8,77400,B15
9,173000,B16
10,3530,B17
11,1180,B18
12,305000,B19

# Biological target: T7, human CD28, endogenously expressed on …
# Assay: flow cytometry, Jurkat/IL2 reporter cells (endogenous CD28), 33.3 nM Fc fusion, PE anti-human Fc
row,MFI at 33.3 nM [MFI],Binder
1,366,B8
2,339,B9
3,14000,B10
4,272,B11
5,305,B12
6,284,B13
7,268,B14
8,323,B15
9,299,B16
10,264,B17
11,279,B18
12,371,B19

# — patent US20210130436A1 (published 2021)
